By Km is commonly meant the concentration of substrate that gives half-maximal velocity. Usually kcat stands for the maximal rate divided by the concentration of active sites. One may read the kcat/Km as the second-order rate constant that governs catalysis at low substrate concentration.

Test in all cases: purified protein
Holding throughout (settings): pH 7.6, 37 °C, 1 mM MgCl2, 10 mM Tris-HCl

Substrate in data set [1]: Cc1cn([C@H]2C[C@H](O)[C@@H](COP(=O)(O)OP(=O)(O)OP(=O)(O)O)O2)c(=O)nc1N
Description: (§1) Pi-sensor (MDCC-PBP) fluorescence, PPase coupled on Q5LBB1_BACFN
Substrate in data set [2]: Nc1nc(=O)n([C@H]2C[C@H](O)[C@@H](COP(=O)(O)OP(=O)(O)OP(=O)(O)O)O2)cc1CO
Description: as §1
Substrate in data set [3]: Nc1nc(=O)n([C@H]2C[C@H](O)[C@@H](COP(=O)(O)OP(=O)(O)OP(=O)(O)O)O2)cc1O
Description: as §1
Substrate in data set [4]: Cc1cn([C@@H]2O[C@H](COP(=O)(O)OP(=O)(O)OP(=O)(O)O)[C@@H](O)[C@H]2O)c(=O)nc1N
Description: as §1

B1: Q5LBB1_BACFN (Bacteroides fragilis NCTC 9343) (protein)
chain: MKSIEVVAAVIRLGEKYLCVQRGQTKFSYTSFRYEFPGGKVEEGESLQEALQREIMEEMDYVIEVGEKLLTVHHTYPDFEITMHAFLCHPVGQRYVLKEHIAAQWLSTREMAILDWAEADKPIVRKISEQ
For the protein B1, the Km in data set [1] is 3.0 ± 0.8 µM; in data set [2], 10 ± 5 µM; in data set [3], 9.2 ± 2.8 µM; in data set [4], 2.5 ± 1.2 µM. Besides, the kcat in data set [1] was determined as 14 ± 1 s⁻¹; in data set [2] it was 45 ± 11 s⁻¹; in data set [3], 0.78 ± 0.11 s⁻¹; in data set [4], 16 ± 3 s⁻¹. Also, the kcat/Km in data set [1] stood at 4.8e+06 ± 1e+06 M⁻¹ s⁻¹; in data set [2] it was 4.4e+06 ± 1e+06 M⁻¹ s⁻¹; in data set [3], 85000 ± 14000 M⁻¹ s⁻¹; in data set [4], 6.7e+06 ± 2.4e+06 M⁻¹ s⁻¹.

The record behind these values is article PMC5158307, “Substrate specificity characterization for eight putative nudix hydrolases. Evaluation of criteria for substrate identification within the Nudix family” (Proteins, 2016).
